{"source": "paper PMC6070508", "key": {"[1]": {"target": "1:1 8D6 Fab/IgE-Fc complex", "sequence (heavy, as listed by the source, chain 1 of 2)": "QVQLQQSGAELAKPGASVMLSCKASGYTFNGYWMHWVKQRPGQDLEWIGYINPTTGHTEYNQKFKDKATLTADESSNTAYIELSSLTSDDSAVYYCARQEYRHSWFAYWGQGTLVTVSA", "sequence (light, as listed by the source, chain 2 of 2)": "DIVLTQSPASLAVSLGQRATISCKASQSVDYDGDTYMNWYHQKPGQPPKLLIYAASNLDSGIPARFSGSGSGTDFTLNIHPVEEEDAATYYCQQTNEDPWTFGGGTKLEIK", "assay": "SPR; IgE-Fc captured on an 8D6 Fab surface (1:1 8D6 Fab/IgE-Fc complex); derCD23 injected at 10 to 0.156 uM; HBS-P with 5 mM CaCl2, 25 °C"}, "[2]": {"target": "2:1 8D6 Fab/IgE-Fc complex", "sequence (heavy, as listed by the source, chain 1 of 2)": "as the sequence (heavy, as listed by the source, chain 1 of 2) above", "sequence (light, as listed by the source, chain 2 of 2)": "as the sequence (light, as listed by the source, chain 2 of 2) above", "assay": "SPR; IgE-Fc captured on an 8D6 Fab surface, then saturated with 100 nM 8D6 Fab (2:1 8D6 Fab/IgE-Fc complex); derCD23 injected at 10 to 0.156 uM; HBS-P with 5 mM CaCl2, 25 °C"}}}
{"substance": "derCD23 (domain or fragment)", "values": [{"measurement": "Kd", "setting": "[1]", "value": 1700, "unit": "nM"}, {"measurement": "Kd", "setting": "[2]", "value": 1700, "unit": "nM"}]}
